Laboratory results taken from patent publication US20210145976A1 (ARO BIOTHERAPEUTICS, published 2021).

Tests used:
[1] = target: T1, recombinant biotinylated CD71 extracellular domain (Sino Biologics) with an N-terminal 6His tag (human, UniProt P02786 89-760, biotinylated (sites not given)); assay: screening ELISA, ratio
T1 construct: extracellular domain; also called hCD71; huCD71
Procedure: (§1) To screen for FN3 domains that specifically bind CD71, streptavidin-coated Maxisorp plates (Nunc catalog 436110) were blocked for 1 hour in Starting Block T20 (Pierce) and then coated with biotinylated CD71 (using same antigen as in panning) or negative controls (an unrelated Fc-fused recombinant protein and human serum albumin) for 1 hour. Plates were rinsed with TBST and diluted lysate was applied to plates for 1 hour. Following additional rinses, wells were treated with HRP-conjugated anti-V5 tag antibody (Abcam, ab1325), for 1 hour and then assayed with POD (Roche, 11582950001).

[2] = target: T2, CD71 on SK-BR-3 cells (human, UniProt P02786 1-760); assay: cell-based or functional assay
[3] = target: T2, CD71 on SK-BR-3 cells; assay: cell-based or functional assay; remark: listed apart in the source
[4] = target: T1, recombinant biotinylated CD71 …; assay: screening ELISA
Procedure: as §1

T1 sequence (P02786 other isoform, or with tags, fused parts or gaps): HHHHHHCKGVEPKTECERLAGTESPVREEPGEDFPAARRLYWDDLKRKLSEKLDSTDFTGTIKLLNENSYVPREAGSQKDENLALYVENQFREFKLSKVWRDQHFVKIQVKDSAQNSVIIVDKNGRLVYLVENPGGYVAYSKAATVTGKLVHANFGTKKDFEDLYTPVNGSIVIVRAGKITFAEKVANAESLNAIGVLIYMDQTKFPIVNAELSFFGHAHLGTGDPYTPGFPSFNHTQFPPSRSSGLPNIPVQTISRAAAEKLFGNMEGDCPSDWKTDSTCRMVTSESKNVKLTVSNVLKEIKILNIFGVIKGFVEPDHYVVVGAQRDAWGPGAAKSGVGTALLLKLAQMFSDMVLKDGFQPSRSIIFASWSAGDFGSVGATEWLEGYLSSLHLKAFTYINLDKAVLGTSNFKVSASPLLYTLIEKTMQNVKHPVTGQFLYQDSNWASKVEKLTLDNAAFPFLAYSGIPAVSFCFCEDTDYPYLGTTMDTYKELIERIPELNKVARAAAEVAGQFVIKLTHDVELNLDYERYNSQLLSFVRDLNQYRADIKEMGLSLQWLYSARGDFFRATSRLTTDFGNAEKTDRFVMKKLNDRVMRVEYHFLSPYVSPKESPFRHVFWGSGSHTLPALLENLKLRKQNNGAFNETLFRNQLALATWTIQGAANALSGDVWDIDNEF
T2 sequence (P02786 whole entry): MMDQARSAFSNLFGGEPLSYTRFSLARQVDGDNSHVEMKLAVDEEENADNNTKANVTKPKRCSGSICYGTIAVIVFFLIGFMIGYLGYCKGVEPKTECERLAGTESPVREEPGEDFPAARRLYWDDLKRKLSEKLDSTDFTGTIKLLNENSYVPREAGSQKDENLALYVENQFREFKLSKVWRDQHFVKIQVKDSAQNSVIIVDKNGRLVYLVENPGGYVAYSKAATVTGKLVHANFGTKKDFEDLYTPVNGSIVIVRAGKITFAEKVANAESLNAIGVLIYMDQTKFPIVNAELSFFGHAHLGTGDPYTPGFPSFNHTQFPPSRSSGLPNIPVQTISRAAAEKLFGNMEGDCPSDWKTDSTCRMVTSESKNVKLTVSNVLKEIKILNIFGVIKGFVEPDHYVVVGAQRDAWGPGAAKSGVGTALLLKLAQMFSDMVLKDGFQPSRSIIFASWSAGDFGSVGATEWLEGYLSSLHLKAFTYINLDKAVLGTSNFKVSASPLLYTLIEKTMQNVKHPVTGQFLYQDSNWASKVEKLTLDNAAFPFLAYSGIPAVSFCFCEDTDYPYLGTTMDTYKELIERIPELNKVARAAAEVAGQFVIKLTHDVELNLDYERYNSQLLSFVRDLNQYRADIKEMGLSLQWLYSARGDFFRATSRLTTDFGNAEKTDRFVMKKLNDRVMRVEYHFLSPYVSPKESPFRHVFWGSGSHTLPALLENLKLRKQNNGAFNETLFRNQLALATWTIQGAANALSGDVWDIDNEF

B1: SEQ ID NO 33 (designed binder)
chain: MLPAPKNLVVSRVTEDSARLSWTAPDAAFDSFTIQYEELTTVGEAIYLRVPGSERSYDLTGLKPGTEYVVWIEGVKGGLRSNPLGAAFTT
notes: FN3 domain
- huCD71/Fc [1]: 46.6
- IC50, SKBR-3 cell viability, MMAF conjugate [2]: 3.27 nM
- IC50, SK-BR3 viability, MMAF conjugate, no competitor [3]: 4.4 nM
- IC50, SK-BR3 viability, MMAF conjugate, with 0.6 uM holo-human transferrin [3]: ~200 nM
- hCD71 [4]: 518000

B2: SEQ ID NO 39 (designed binder)
chain: MLPAPKNLVVSRVTEDSARLSWTAPDAAFDSFDIDYREWWTLGEAIVLTVPGSERSYDLTGLKPGTEYYVNIQGVKGGLRSYPLSAIFTT
notes: FN3 domain
- huCD71/Fc [1]: 122
- IC50, SKBR-3 cell viability, MMAF conjugate [2]: 0.52 nM
- IC50, SK-BR3 viability, MMAF conjugate, no competitor [3]: 1.2 nM
- IC50, SK-BR3 viability, MMAF conjugate, with 0.6 uM holo-human transferrin [3]: 31.1 nM
- hCD71 [4]: 507000

B3: SEQ ID NO 40 (designed binder)
chain: MLPAPKNLVVSRVTEDSARLSWTAPDAAFDSFVIEYWEYVGHGEAIVLTVPGSERSYDLTGLKPGTEYSVGIYGVKGGSLSRPLSAIFTT
notes: FN3 domain
- huCD71/Fc [1]: 74.4
- IC50, SKBR-3 cell viability, MMAF conjugate [2]: 3 nM
- IC50, SK-BR3 viability, MMAF conjugate, no competitor [3]: 2.2 nM
- IC50, SK-BR3 viability, MMAF conjugate, with 0.6 uM holo-human transferrin [3]: ~100 nM
- hCD71 [4]: 220000

B4: SEQ ID NO 41 (designed binder)
chain: MLPAPKNLVISRVTEDSARLSWTAPDAAFDSFFIYYIESYPAGEAIVLTVPGSERSYDLTGLKPGTEYWVGIDGVKGGRWSTPLSAIFTT
notes: FN3 domain
- huCD71/Fc [1]: 423
- IC50, SKBR-3 cell viability, MMAF conjugate [2]: 4.7 nM
- IC50, SK-BR3 viability, MMAF conjugate, no competitor [3]: 0.01 nM
- IC50, SK-BR3 viability, MMAF conjugate, with 0.6 uM holo-human transferrin [3]: 0.5 nM
- hCD71 [4]: 4.27e+06

B5: SEQ ID NO 42 (designed binder)
chain: MLPAPKNLVVSRVTEDSARLSWTAPDAAFDSFTIEYYESFYGGEAIVLTVPGSERSYDLTGLKPGTEYYVSIYGVKGGWLSRPLSAIFTT
notes: FN3 domain
- huCD71/Fc [1]: 478
- IC50, SKBR-3 cell viability, MMAF conjugate [2]: 0.19 nM
- IC50, SK-BR3 viability, MMAF conjugate, no competitor [3]: 2.4 nM
- IC50, SK-BR3 viability, MMAF conjugate, with 0.6 uM holo-human transferrin [3]: ~70 nM
- hCD71 [4]: 2.83e+06

B6: SEQ ID NO 43 (designed binder)
chain: MLPAPKNLVVSRVTEDSARLSWTAPDAAFDSFYIEYYESYPGGEAIVLTVPGSERSYDLTGLKPGTEYDVYIYGVKGGYWSRPLSAIFTT
notes: FN3 domain
- huCD71/Fc [1]: 199
- IC50, SKBR-3 cell viability, MMAF conjugate [2]: 0.069 nM
- IC50, SK-BR3 viability, MMAF conjugate, no competitor [3]: 0.97 nM
- IC50, SK-BR3 viability, MMAF conjugate, with 0.6 uM holo-human transferrin [3]: ~80 nM
- hCD71 [4]: 1.62e+06

B7: SEQ ID NO 45 (designed binder)
chain: MLPAPKNLVVSRVTEDSARLSWTAPDAAFDSFAIYYLESYPEGEAIVLTVPGSERSYDLTGLKPGTEYWVGIDGVKGGTWSSPLSAIFTT
notes: FN3 domain
- huCD71/Fc [1]: 669
- IC50, SKBR-3 cell viability, MMAF conjugate [2]: 8.3 nM
- IC50, SK-BR3 viability, MMAF conjugate, no competitor [3]: 0.05 nM
- IC50, SK-BR3 viability, MMAF conjugate, with 0.6 uM holo-human transferrin [3]: 0.9 nM
- hCD71 [4]: 1.93e+06

B8: SEQ ID NO 46 (designed binder)
chain: MLPAPKNLVVSRVTEDSARLSWTAPDAAFDSFTIEYFEFTGTGEAIVLTVPGSERSYDLTGLKPGTEYYVSIYGVKGGLLSAPLSAIFTT
notes: FN3 domain
- huCD71/Fc [1]: 37
- IC50, SKBR-3 cell viability, MMAF conjugate [2]: 2.69 nM
- IC50, SK-BR3 viability, MMAF conjugate, no competitor [3]: 3 nM
- IC50, SK-BR3 viability, MMAF conjugate, with 0.6 uM holo-human transferrin [3]: ~100 nM
- hCD71 [4]: 113000

B9: SEQ ID NO 47 (designed binder)
chain: MLPAPKNLVVSRVTEDSARLSWTAPDAAFDSFTIWYAEALGDGEAIVLTVPGSERSYDLTGLKPGTEYFVDIYGVKGGFWSLPLSAIFTT
notes: FN3 domain
- huCD71/Fc [1]: 50.9
- IC50, SKBR-3 cell viability, MMAF conjugate [2]: 5.9 nM
- IC50, SK-BR3 viability, MMAF conjugate, no competitor [3]: 1.6 nM
- IC50, SK-BR3 viability, MMAF conjugate, with 0.6 uM holo-human transferrin [3]: ~85 nM
- hCD71 [4]: 265000

B10: SEQ ID NO 48 (designed binder)
chain: MLPAPKNLVVSRVTEDSARLSWTAPDAAFDSFVIEYFEQFNLGEAIVLTVPGSERSYDLTGLKPGTEYWVGIYGVKGGWLSHPLSAIFTT
notes: FN3 domain
- huCD71/Fc [1]: 337
- IC50, SKBR-3 cell viability, MMAF conjugate [2]: 0.42 nM
- IC50, SK-BR3 viability, MMAF conjugate, no competitor [3]: 1.3 nM
- IC50, SK-BR3 viability, MMAF conjugate, with 0.6 uM holo-human transferrin [3]: ~70 nM
- hCD71 [4]: 943000

B11: SEQ ID NO 53 (designed binder)
chain: MLPAPKNLVVSRVTEDSARLSWTAPDAAFDSFFISYIEWWDLGEAIVLTVPGSERSYDLTGLKPGTEYHVEIFGVKGGTQSYPLSAIFTT
notes: FN3 domain
- huCD71/Fc [1]: 110
- IC50, SKBR-3 cell viability, MMAF conjugate [2]: 0.07 nM
- IC50, SK-BR3 viability, MMAF conjugate, no competitor [3]: 3.6 nM
- IC50, SK-BR3 viability, MMAF conjugate, with 0.6 uM holo-human transferrin [3]: ~90 nM
- hCD71 [4]: 1.01e+06

B12: SEQ ID NO 55 (designed binder)
chain: MLPAPKNLVVSRVTEDSARLSWTAPDAAFDSFIIEYWEFVGYGEAIVLTVPGSERSYDLTGLKPGTEYWVAIYGVKGGDLSKPLSAIFTT
notes: FN3 domain
- huCD71/Fc [1]: 1440
- IC50, SKBR-3 cell viability, MMAF conjugate [2]: 0.026 nM
- IC50, SK-BR3 viability, MMAF conjugate, no competitor [3]: 0.15 nM
- IC50, SK-BR3 viability, MMAF conjugate, with 0.6 uM holo-human transferrin [3]: 5.5 nM
- hCD71 [4]: 1.11e+07

B13: SEQ ID NO 56 (designed binder)
chain: MLPAPKNLVVSRVTEDSARLSWTAPDAAFDSFVIEYFEALEGGEAIVLTVPGSERSYDLTGLKPGTEYFVGIYGVKGGPLSKPLSAIFTT
notes: FN3 domain
- huCD71/Fc [1]: 1510
- IC50, SKBR-3 cell viability, MMAF conjugate [2]: 0.24 nM
- IC50, SK-BR3 viability, MMAF conjugate, no competitor [3]: 0.35 nM
- IC50, SK-BR3 viability, MMAF conjugate, with 0.6 uM holo-human transferrin [3]: 14.7 nM
- hCD71 [4]: 1.13e+07

B14: SEQ ID NO 57 (designed binder)
chain: MLPAPKNLVVSRVTEDSARLSWTAPDAAFDSFSIKYLEWWQDGEAIVLTVPGSERSYDLTGLKPGTEYYVHIAGVKGGYRSYPLSAIFTT
notes: FN3 domain
- huCD71/Fc [1]: 113
- IC50, SKBR-3 cell viability, MMAF conjugate [2]: 3.13 nM
- IC50, SK-BR3 viability, MMAF conjugate, no competitor [3]: 0.38 nM
- IC50, SK-BR3 viability, MMAF conjugate, with 0.6 uM holo-human transferrin [3]: 5.3 nM
- hCD71 [4]: 1.9e+06

B15: SEQ ID NO 60 (designed binder)
chain: MLPAPKNLVVSRVTEDSARLSWTAPDAAFDSFTIWYAEAIGHGEAIVLTVPGSERSYDLTGLKPGTEYWVDIWGVKGGQQSKPLSAIFTT
notes: FN3 domain
- huCD71/Fc [1]: 691
- IC50, SKBR-3 cell viability, MMAF conjugate [2]: 0.45 nM
- IC50, SK-BR3 viability, MMAF conjugate, no competitor [3]: 0.21 nM
- IC50, SK-BR3 viability, MMAF conjugate, with 0.6 uM holo-human transferrin [3]: 14.4 nM
- hCD71 [4]: 4.48e+06

B16: SEQ ID NO 34 (designed binder)
chain: MLPAPKNLVVSRVTEDSARLSWTAPDAAFDSFAITYIEWWDVGEAIGLKVPGSERSYDLTGLKPGTEYRVHIQGVKGGNNSYPLDALFTT
notes: FN3 domain
- huCD71/Fc [1]: 12
- IC50, SKBR-3 cell viability, MMAF conjugate [2]: 0.37 nM
- IC50, SK-BR3 viability, MMAF conjugate, no competitor [3]: 1.3 nM
- IC50, SK-BR3 viability, MMAF conjugate, with 0.6 uM holo-human transferrin [3]: 196 nM
- hCD71 [4]: 310000

B17: SEQ ID NO 54 (designed binder)
chain: MLPAPKNLVVSRVTEDSARLSWTAPDAAFDSFQILYQENAFEGEAIVLTVPGSERSYDLTGLKPGTEYWVYIYGVKGGYPSVPLSAIFTT
notes: FN3 domain
- huCD71/Fc [1]: 1130
- IC50, SKBR-3 cell viability, MMAF conjugate [2]: 0.4 nM
- IC50, SK-BR3 viability, MMAF conjugate, no competitor [3]: 0.13 nM
- IC50, SK-BR3 viability, MMAF conjugate, with 0.6 uM holo-human transferrin [3]: 5 nM
- hCD71 [4]: 6.99e+06

B18: SEQ ID NO 35 (designed binder)
chain: MLPAPKNLVVSRVTEDSARLSWTAPDAAFDSFEIAYFEAIWNGEAIYLTVPGSERSYDLTGLKPGTEYQVEIRGVKGGPTSRPLFAWFTT
notes: FN3 domain
- huCD71/Fc [1]: 2130
- IC50, SKBR-3 cell viability, MMAF conjugate [2]: 2.5 nM
- IC50, SK-BR3 viability, MMAF conjugate, no competitor [3]: 0.7 nM
- IC50, SK-BR3 viability, MMAF conjugate, with 0.6 uM holo-human transferrin [3]: 41.5 nM
- hCD71 [4]: 3.24e+06

B19: SEQ ID NO 37 (designed binder)
chain: MLPAPKNLVVSRVTEDSARLSWTAPDAAFDSFHIIYTEEEKEGEAIYLRVPGSERSYDLTGLKPGTEYLVEIEGVKGGKRSVPLNASFTT
notes: FN3 domain
- huCD71/Fc [1]: 467
- IC50, SKBR-3 cell viability, MMAF conjugate [2]: 0.15 nM
- IC50, SK-BR3 viability, MMAF conjugate, no competitor [3]: 0.7 nM
- IC50, SK-BR3 viability, MMAF conjugate, with 0.6 uM holo-human transferrin [3]: 143 nM
- hCD71 [4]: 1.27e+06

B20: SEQ ID NO 38 (designed binder)
chain: MLPAPKNLVVSRVTEDSARLSWTAPDAAFDSFHIAYEESHTTGEAIFLRVPGSERSYDLTGLKPGTEYSVSIEGVKGGHYSPPLTAKFTT
notes: FN3 domain
- huCD71/Fc [1]: 202
- IC50, SKBR-3 cell viability, MMAF conjugate [2]: 3.82 nM
- IC50, SK-BR3 viability, MMAF conjugate, no competitor [3]: 4 nM
- IC50, SK-BR3 viability, MMAF conjugate, with 0.6 uM holo-human transferrin [3]: ~120 nM
- hCD71 [4]: 840000
